Experimental data reported in PMC9377746 (Molecular Cancer Therapeutics, 2022).
Values belong to the molecule of their own block, whether it stands above or below them.

Key:
[1] = target: human FcγRIIb (human) (UniProt P31994); test: SPR
[2] = target: purified cynomolgus Clever-1 (Macaca fascicularis, UniProt A0A2K5VS84); test: SPR
[3] = target: purified human Clever-1 (Homo sapiens, UniProt Q9NY15); test: SPR
[4] = target: human Clever-1 on cells and in tissue (Homo sapiens, UniProt Q9NY15); test: flow cytometry on cells
Chain of human Clever-1 on cells and in tissue (Q9NY15 26-2570): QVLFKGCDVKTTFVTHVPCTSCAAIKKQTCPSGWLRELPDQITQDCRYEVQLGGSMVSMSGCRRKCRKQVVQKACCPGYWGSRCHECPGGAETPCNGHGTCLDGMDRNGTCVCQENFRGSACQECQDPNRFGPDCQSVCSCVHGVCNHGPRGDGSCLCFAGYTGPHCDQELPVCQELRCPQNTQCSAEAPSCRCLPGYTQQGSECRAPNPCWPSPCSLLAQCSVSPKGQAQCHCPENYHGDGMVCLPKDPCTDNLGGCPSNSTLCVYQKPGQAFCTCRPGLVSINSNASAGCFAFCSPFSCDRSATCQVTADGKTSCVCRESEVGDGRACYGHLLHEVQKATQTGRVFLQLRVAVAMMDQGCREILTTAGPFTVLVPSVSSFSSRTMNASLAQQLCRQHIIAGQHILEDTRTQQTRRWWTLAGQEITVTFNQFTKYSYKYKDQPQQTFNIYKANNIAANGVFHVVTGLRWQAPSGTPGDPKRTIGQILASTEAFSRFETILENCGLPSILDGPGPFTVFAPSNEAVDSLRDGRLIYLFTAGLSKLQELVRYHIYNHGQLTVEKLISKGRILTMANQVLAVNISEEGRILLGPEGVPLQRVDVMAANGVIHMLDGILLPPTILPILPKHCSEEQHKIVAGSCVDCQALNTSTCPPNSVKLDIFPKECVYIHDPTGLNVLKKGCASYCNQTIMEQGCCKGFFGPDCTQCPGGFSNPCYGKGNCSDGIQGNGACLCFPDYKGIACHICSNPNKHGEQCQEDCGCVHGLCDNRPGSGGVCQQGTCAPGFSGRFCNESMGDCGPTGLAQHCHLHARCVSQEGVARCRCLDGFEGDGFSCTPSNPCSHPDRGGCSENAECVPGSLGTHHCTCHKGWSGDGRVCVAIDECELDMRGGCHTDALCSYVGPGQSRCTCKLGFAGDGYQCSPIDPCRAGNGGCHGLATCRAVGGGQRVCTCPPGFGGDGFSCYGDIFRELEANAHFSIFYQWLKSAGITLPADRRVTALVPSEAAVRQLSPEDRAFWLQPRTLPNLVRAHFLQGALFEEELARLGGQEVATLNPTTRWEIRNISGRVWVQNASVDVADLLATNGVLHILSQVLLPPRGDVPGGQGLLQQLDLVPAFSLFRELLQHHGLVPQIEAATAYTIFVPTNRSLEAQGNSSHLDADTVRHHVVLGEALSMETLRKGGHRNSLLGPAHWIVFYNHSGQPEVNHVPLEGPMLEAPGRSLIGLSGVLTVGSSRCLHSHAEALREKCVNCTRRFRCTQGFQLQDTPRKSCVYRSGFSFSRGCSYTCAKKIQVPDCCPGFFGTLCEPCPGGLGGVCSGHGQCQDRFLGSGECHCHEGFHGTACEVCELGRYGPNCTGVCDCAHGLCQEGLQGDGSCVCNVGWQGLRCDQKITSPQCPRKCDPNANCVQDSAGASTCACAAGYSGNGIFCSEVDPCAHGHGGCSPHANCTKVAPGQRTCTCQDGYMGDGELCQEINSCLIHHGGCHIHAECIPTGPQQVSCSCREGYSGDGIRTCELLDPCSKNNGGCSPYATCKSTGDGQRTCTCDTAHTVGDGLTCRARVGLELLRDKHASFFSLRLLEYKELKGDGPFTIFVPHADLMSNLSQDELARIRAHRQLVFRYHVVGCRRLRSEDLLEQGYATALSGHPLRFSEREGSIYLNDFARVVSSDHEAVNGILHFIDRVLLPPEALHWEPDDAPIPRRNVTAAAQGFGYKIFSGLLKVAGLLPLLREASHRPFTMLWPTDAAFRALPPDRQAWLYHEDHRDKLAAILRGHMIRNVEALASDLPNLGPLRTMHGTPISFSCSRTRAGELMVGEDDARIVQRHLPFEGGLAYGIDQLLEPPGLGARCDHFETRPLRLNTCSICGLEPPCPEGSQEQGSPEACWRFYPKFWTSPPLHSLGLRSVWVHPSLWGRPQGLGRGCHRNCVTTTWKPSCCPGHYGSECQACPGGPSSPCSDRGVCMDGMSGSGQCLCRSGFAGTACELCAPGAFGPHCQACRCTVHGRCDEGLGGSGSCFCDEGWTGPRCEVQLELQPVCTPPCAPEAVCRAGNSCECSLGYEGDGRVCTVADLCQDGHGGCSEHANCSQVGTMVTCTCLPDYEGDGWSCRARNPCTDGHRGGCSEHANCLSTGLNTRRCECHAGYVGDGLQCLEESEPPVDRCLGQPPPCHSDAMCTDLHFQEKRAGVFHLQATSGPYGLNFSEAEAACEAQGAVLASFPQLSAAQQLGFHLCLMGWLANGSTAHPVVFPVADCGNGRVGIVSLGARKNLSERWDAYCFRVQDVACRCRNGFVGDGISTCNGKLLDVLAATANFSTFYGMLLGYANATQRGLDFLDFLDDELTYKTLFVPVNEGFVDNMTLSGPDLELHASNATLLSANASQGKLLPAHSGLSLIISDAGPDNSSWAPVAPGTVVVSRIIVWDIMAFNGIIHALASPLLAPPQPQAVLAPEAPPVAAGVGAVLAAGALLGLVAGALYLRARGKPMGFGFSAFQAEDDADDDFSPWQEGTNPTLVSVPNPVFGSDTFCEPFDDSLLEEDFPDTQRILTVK

Chain of human FcγRIIb (human) (P31994 43-310): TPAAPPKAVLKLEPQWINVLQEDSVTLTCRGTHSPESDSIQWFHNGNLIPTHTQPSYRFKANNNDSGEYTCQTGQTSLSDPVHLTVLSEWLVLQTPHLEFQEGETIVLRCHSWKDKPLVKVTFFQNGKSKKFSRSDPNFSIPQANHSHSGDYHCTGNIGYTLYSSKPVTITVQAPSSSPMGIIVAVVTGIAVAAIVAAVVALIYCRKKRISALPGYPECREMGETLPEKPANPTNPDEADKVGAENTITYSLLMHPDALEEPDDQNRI
Chain of purified human Clever-1 (Q9NY15 26-2570): as the sequence (Q9NY15 26-2570) above

Kd [1]: 11400 nM
Molecule: bexmarilimab (antibody)

Kd [1]: 5130 nM
Molecule: rituximab (antibody)

Kd [2]: 0.92 nM
Kd [3]: 0.75 nM
EC50 [4]: 2.2 nM
B1: bexmarilimab (antibody, V domains shown)
VH: QVTLKESGPTLVKPTQTLTLTCSFSGFSLSTSGMGIGWIRQPPGKALEWLAHIWWDDDKRYNPALKSRLTISKDTSKNQVVLTMTNMDPVDTATYYCARHYGYDPYYAMDYWGQGTLVTVSS
VL: EIVLTQSPGTLSLSPGERATLSCTASSSVSSSYLHWYQQKPGKAPKLLIYRTSNLASGVPSRFSGSGSGTDYTLTISSLQPEDFATYYCHQYHRSPPTFGQGTKLEIK
